# Data from patent publication US10444224B2, “Method for RNA detection and quantification” (Cornell University, priority 2011, dated 2019).
# Where a chain is given by its changes, count along the chain named. Where “and” joins values, the source holds several entries; their conditions need not be identical. Equal values may be shown once. Entries after “also recorded” stand apart in the source; their conditions may differ.
# B1: SEQ ID NO: 59: RNA aptamer listed for fluorophore DFAN (nucleic acid)
# chain: GGGAGACGCAACUGAAUGAAAUACUUGGGAUGGUAAUGGCCUGGAGCUGCUUCGGCAGACCCGUGCAAGGACGUGGGAGAGGGGUCCGUAACUAGUCGCGUCAC
# modifications: listed as RNA, chemistry not given here
# B2: SAM sensor: Spinach-based turn-on RNA sensor for SAM, transducer stem 1 (nucleic acid)
# chain: GACGCGACUGAAUGAAAUGGUGAAGGACGGGUCCACGAAAGGAUGGCGGAAACGCCAGAUGCCUUGUAACCGAAAGGGUUGUUGAGUAGAGUGUGAGCUCCGUAACUAGUCGCGUC
# modifications: chemistry not given here
# B3: Spinach: first generation derivative of 24-2, DFHBI-binding RNA aptamer (nucleic acid)
# chain 1: GACGCGACUGAAUGAAAUGGUGAAGGACGGGUCCAGGUGUGGCUGCUUCGGCAGUGCAGCUUGUUGAGUAGAGUGUGAGCUCCGUAACUAGUCGCGUC
# chain 2: B3 chain 1 with G6A
# modifications: listed as RNA, chemistry not given here
# B4: ADP sensor: Spinach-based turn-on RNA sensor for ADP, transducer stem 3 (nucleic acid)
# chain: GACGCGACUGAAUGAAAUGGUGAAGGACGGGUCCAGCACGAGGGGGAAACCCCGGACAAUCAGACACGGUGCUUGUUGAGUAGAGUGUGAGCUCCGUAACUAGUCGCGUC
# modifications: listed as RNA, chemistry not given here
# B5: Spinach-streptavidin sensor: Spinach-based streptavidin sensor RNA molecule (nucleic acid)
# chain: GACGCGACUGAAUGAAAUGGUGAAGGACGGGUCCACGACCGACCAGAAUCAUGCAAGUGCGUAAGAUAGUCGCGGGCCGGGGUUGUUGAGUAGAGUGUGAGCUCCGUAACUAGUCGCGUC
# modifications: listed as RNA, chemistry not given here
# notes: Spinach-based streptavidin sensor RNA molecule
# Experiments:
# [1] = Bell et al. 2000; cited from earlier work
# [2] = Emission and excitation of aptamer-DFAN complex; format: physicochemical; details: aptamer with DFAN
# [3] = Spinach-based RNA sensor fluorescence in response to SAM; format: biochemical
# Procedure: (§2) Dose-response curves for each sensor in response to the target metabolite were determined by measuring the increase in fluorescence as a function of increasing target concentration in the presence of a fixed concentration of RNA sensor (10-50 nM) and a fixed concentration of fluorophore (10 μM). Curves were determined using a nonlinear regression analysis in Prism software and matched by least squares fitting to a standard dose-response model for 1:1 complexation.
# (§3) The optimal sensors were chosen based on their low fluorescence in the absence of metabolite and the relative increase in fluorescence upon binding to the metabolite.
# [4] = Sensor activation rate, SAM sensor; format: biochemical; details: 1 mM SAM, 37° C.
# Procedure: (§1) A solution of RNA sensor (1 μM) and DFHBI (10 μM) was incubated with continuous stirring at 37° C. in a buffer containing 40 mM HEPES pH 7.4, 125 mM KCl and 1 mM MgCl2. The target metabolite (1 mM) was then rapidly added to the stirring solutions and fluorescence emission was recorded over a 15 min period under continuous illumination at 37° C. using the following instrumental parameters: excitation wavelength, 460 nm; emission wavelength, 500 nm; increment of data point collection, 0.05 s; slit widths, 10 nm. The fluorescence increase was then plotted against exposure time and normalized to the maximum intensity of each fluorophore.
# [5] = tested on: endogenous SAM levels in living E. coli cells; assay: Live cell imaging of SAM accumulation with the SAM sensor; format: cell-based; set-up: average increase in SAM levels upon treatment with methionine: dose or concentration left out as unconfirmed
# Procedure: Expression of the SAM aptamer and intracellular imaging was performed as described above for the ADP sensor: BL21-A Star E. coli cells (Invitrogen) were transformed with 40 ng of plasmid DNA expressing the tRNA-sensor chimeras in pET28c under the control of a T7 promoter. Cells were plated, grown overnight and single colonies were picked for inoculation in LB-Kan. At OD600=0.4, 1 mM of IPTG was added to the culture and shaking was continued at 37° C. for more 2 hours. 100 μL of culture was then removed, spun down to pellet the culture, and resuspended in 2 mL of pH 6.0 M9 minimal media. A 200 μl aliquot of resuspended culture was then plated on PLL-coated 24-well glass-bottom dishes (MatTek) and incubated for 45 minutes at 37° C. Adherent cells were washed twice and then incubated with 200 μM DFHBI in pH 6.0 M9 minimal media for 2 hours at 37° C. Cells were then treated with methionine alone or methionine with inhibitors by adding 2 μl of a 100× stock of the compound to a final concentration of 50 μg/ml for L-methionine, 25 μM for adenosine periodate, and 2.5 μM for MT-DADMe-ImmA. Live fluorescence images were taken with a CoolSnap HQ2 CCD camera through a 60× oil objective mounted on a Nikon TE2000 microscope and analyzed with the NIS-Elements software. The filter set used was a sputter coated filter cube with excitation filter 470/40, dichroic mirror 495 (long pass) and emission filter 525/50 (Chroma Technology).
# Cells transformed with SAM sensors were grown overnight in LB-Kan. Cultures were then diluted to OD600=0.1 in 200 mL LB-Kan and grown to OD600=0.4. Cells were then induced for 2 hours with 1 mM IPTG at 37° C. with constant shaking. The entire culture was centrifuged for 5 min at 1,000×g, pellets were resuspended and washed once with M9 media and then resuspended in […] of M9 media containing 200 μM DFHBI and divided into two samples. Methionine (50 μg/ml) or vehicle was then added to either sample and cultures were incubated between 32-37° C. 25 ml aliquots were removed from methionine- and vehicle-treated sample at each time point, centrifuged for 5 min at 1,000×g, and flash frozen in liquid nitrogen. Cells were thawed on ice and lysed by resuspending the pellet in 300 μl of cold 4% perchloric acid. Insoluble material was then pelleted by spinning at 1,000×g for 5 min and the supernatant was transferred to a dialysis spin column with a 10,000 molecular weight cut off (Amicon) and spun at 10,000×g for 10 min at 4° C. A portion of the flow through (50 μl) was then injected on a Zorbax C8 column (Agilent) on an Agilent 1100 HPLC. Samples were loaded and eluted for 15 min with an aqueous buffer containing 3.6% acetonitrile, 40 mM ammonium phosphate, and 5 mM sodium 1-heptanesulfonate which was brought to pH 5.0 with hydrochloric acid. After each sample was eluted, the column was washed with a gradient of 3.6-25% acetonitrile for 30 min prior to the next samples being injected. SAM standards were used to calibrate SAM levels measured using this assay.
# Population analysis was carried out using NIS-Elements software. Individual cells in a captured field were manually traced as Region of Interests (ROIs) and tracked through the different time points of image capture. Fluorescence intensity was then calculated by dividing the total fluorescence by the area for each ROI, which gives the mean intensity per unit area. Fold increase in fluorescence over time is calculated as the ratio of mean intensity at a desired time point and at time zero. Values in fold increase in fluorescence over time are plotted as frequency distributions or further used in statistical analyses.
# [6] = Photobleaching curves on glass slides under continuous illumination; format: physicochemical; details: immobilized on glass slides, 130 W mercury lamp, 45 min
# Procedure: Photobleaching experiments were performed on fluorescein, EGFP and 24-2-DFHBI complexes immobilized on chemically functionalized glass slides (MicroSurfaces). To immobilized fluorescein, fluorescein cadaverine (Sigma-Aldrich) was reacted in 40 mM HEPES pH 8.0 with NHS-activated glass slides for 2 h at 25° C. Slides were then incubated in 100 mM Tris pH 8.0 to quench any unreacted NHS-activated sites. […] To immobilize 24-2-DFHBI, a 3′ amine modified 21-nt DNA oligo (sequence: 5′-GGTTGTAAGTTTTAGGTTGCC-NH2-3′, SEQ ID NO: 45; Integrated DNA Technologies) was reacted with NHS-activated glass slides. Unreacted NHS-activated sites were blocked as above. 24-2 RNA was then in vitro synthesized with a 5′ overhang complimentary to the immobilized DNA oligo. Purified 24-2 RNA was denatured at 65° C. and incubated with the slide at 25° C. for 20 min to allow hybridization to the immobilized oligonucleotide. […] Images were captured every 10 s with a CoolSnap HQ2 CCD camera through a 10× air objective mounted on a Nikon TE2000 microscope and analyzed with the NIS-Elements software. […] Total fluorescence was then plotted against exposure time and normalized to the maximum intensity of each fluorophore.
# [7] = Spinach-based RNA sensor fluorescence in response to ADP; format: biochemical
# Procedure: as §2, §3
# [8] = Sensor activation rate, ADP sensor; format: biochemical; details: 1 mM ADP, 37° C.
# Procedure: as §1
# [9] = tested on: endogenous ADP levels in living E. coli cells; assay: Live cell imaging of ADP dynamics with the ADP sensor; format: cell-based; details: 200 μM DFHBI
# Procedure: BL21-A Star E. coli cells (Invitrogen) were transformed with 40 ng of plasmid DNA expressing the tRNA-sensor chimeras in pET28c under the control of a T7 promoter. Cells were plated, grown overnight and single colonies were picked for inoculation in Luria Broth containing kanamycin (LB-Kan). At OD600=0.4, 1 mM of IPTG was added to the culture and shaking was continued at 37° C. for more 2 hours. 100 uL of culture was then removed, spun down to pelleted the culture, and resuspended in 2 mL of pH 6.0 M9 minimal media. A 200 μl aliquot of resuspended culture was then plated on poly-L-lysine (PLL)-coated 24-well glass-bottom dishes (MatTek) and incubated for 45 minutes at 37° C. Adherent cells were washed twice and then incubated with 200 μM DFHBI in pH 6.0 M9 minimal media for 45 min at 37° C. Cells then were washed twice and incubated with M9 media containing 200 μM DFHBI and the appropriate carbon source (2 mg/ml glucose, 6.65 mg/ml potassium acetate, 4.05 mg/ml glycerol or 5.51 mg/ml succinate). Live fluorescence images were taken with a CoolSnap HQ2 CCD camera through a 60× oil objective mounted on a Nikon TE2000 microscope and analyzed with the NIS-Elements software. The filter set used was a sputter coated filter cube with excitation filter 470/40, dichroic mirror 495 (long pass) and emission filter 525/50 (Chroma Technology).
# Cells transformed with ADP sensor were grown overnight in LB-Kan. Cultures were then diluted to OD600=0.1 in 200 mL LB-Kan and grown to OD600=0.4. Cells were then induced for 2 hours with 1 mM IPTG at 37° C. with constant shaking. The entire culture was split in two samples and then placed in a centrifuged for 5 min at 1,000×g. Pellets were then washed once and resuspended in […] of M9 media containing 200 μM DFHBI and either 2.00 mg/ml glucose or 6.68 mg/ml potassium acetate as the carbon source. […] Aliquots of culture were removed every 30 min, pelleted, lysed, and ADP levels were measured with an ADP Fluorometric Assay Kit (Abcam) according to manufacturer's instructions.
# streptavidin = streptavidin (Streptomyces avidinii, UniProt P22629); assay: Spinach-based protein sensor fluorescence activation; format: biochemical; details: micromolar concentrations of protein, DFHBI included
# Description: Using the same strategy from Example 5-7, a streptavidin aptamer (Srisawat and Engelke, “Streptavidin Aptamers: Affinity Tags for the Study of RNAs and Ribonucleoproteins, RNA 7:632-41 (2001), which is hereby incorporated by reference in its entirety) was fused to Spinach, and the transducer domain was optimized. The resulting RNA molecule is illustrated in FIG. 16A. The sensor was separately exposed to solutions containing micromolar concentrations of streptavidin, ovalalbumin, BSA, and lysozyme. […] Thus, the approach is generalizable not just to small molecules, but also proteins.
# streptavidin, sequence (P22629 25-183, species assumed): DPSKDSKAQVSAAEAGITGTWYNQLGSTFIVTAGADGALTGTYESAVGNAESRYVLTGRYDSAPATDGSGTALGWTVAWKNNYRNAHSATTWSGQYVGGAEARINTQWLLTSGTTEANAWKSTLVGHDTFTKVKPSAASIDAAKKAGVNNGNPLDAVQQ
molecule,measurement,setting,value
"CC1=NC(=Cc2ccc(O)cc2)C(=O)N1C [HBI, 4-(4-hydroxybenzylidene)-1,2-dimethyl-imidazol-5-one]",pKa,[1],8.1
B1,Em,[2],Em = 550 nm
same,Ex,[2],Ex = 480 nm
B2,increase in fluorescence in the presence of SAM,"[3]; 10 μM DFHBI, 1 mM SAM, versus no SAM",25 fold and 24 fold
same,molecular discrimination: fluorescence with methionine or adenosine,[3]; 1 mM,negligibly fluorescent; also recorded: negligible signal above background
same,molecular discrimination: fluorescence with SAH,[3]; 1 mM SAH,only minimal fluorescence; also recorded: negligible signal
same,EC50,"[3]; dose-response, 10 μM fluorophore, read-out: half-maximal fluorescence (EC50), SAM",120 µM
same,time to maximal fluorescence after SAM addition,"[4]; 1 μM RNA sensor, 10 μM DFHBI",≤ 10 min
same,time to increase in fluorescence after SAM addition,[4],less than 10 s
same,average increase in sensor fluorescence in methionine-treated cells,"[5]; 50 μg/ml methionine, 3 hr",over 6 fold
same,average increase in SAM levels upon treatment with methionine,"[5]; methionine, 180 min (FIG. 9D)",six-fold
B3,photobleaching during continuous illumination,[6],remarkable resistance to photobleaching
B4,increase in fluorescence in the presence of ADP,"[7]; 10 μM DFHBI, 1 mM ADP, versus no ADP",20 fold and 18 fold
same,"molecular discrimination: activation by ATP, AMP, cAMP, NAD+",[7]; 1 mM competing molecules,negligibly activated; also recorded: specific for ADP
same,EC50,"[7]; dose-response, 10 μM fluorophore, read-out: half-maximal fluorescence (EC50), ADP",270 µM
same,time to increase in fluorescence after ADP addition,[8],less than 10 s
same,sensor fluorescence after switch to succinate or glycerol,[9],did not substantially increase fluorescence
same,increase in sensor fluorescence over baseline after switch from glucose to acetate media,[9]; by 3 hr,~6 fold
same,increase in sensor fluorescence over baseline after switch from glucose to acetate media,[9]; within 30 min,1.8 fold
B5,"fluorescence activation by BSA, ovalbumin or lysozyme",streptavidin,fail to increase fluorescence above background levels
same,fluorescence activation by streptavidin,streptavidin,specific fluorescence activation occurs only in solutions that contained streptavidin
